Data set [1] addresses T1, EBOV sGP (soluble glycoprotein) (Zaire ebolavirus (EBOV), UniProt P60170 33-324). The data set can be described thus: filter binding; monomer basis; Fig S8 legend uses 50 nM. Conditions: protein: recombinant; tags: 6xHis; chain copies: 2; label: 32P; hairpin.
Data set [2] deals with fibrinogen (UniProt P02671;P02675;P02679 20-866;31-491;27-453). The data set can be described thus: filter binding; 250 nM to 4 uM fibrinogen; Buffer A: 137 mM NaCl, 2.7 mM KCl, 10 mM Na2HPO4, 2 mM KH2PO4, 5 mM MgCl2, pH 7.4, RT (23-24 C), 30 min. Conditions: protein: commercial; chain copies: 2;2;2; label: 32P; hairpin.
Sequence of fibrinogen (P02671 20-866, chain 1 of 3): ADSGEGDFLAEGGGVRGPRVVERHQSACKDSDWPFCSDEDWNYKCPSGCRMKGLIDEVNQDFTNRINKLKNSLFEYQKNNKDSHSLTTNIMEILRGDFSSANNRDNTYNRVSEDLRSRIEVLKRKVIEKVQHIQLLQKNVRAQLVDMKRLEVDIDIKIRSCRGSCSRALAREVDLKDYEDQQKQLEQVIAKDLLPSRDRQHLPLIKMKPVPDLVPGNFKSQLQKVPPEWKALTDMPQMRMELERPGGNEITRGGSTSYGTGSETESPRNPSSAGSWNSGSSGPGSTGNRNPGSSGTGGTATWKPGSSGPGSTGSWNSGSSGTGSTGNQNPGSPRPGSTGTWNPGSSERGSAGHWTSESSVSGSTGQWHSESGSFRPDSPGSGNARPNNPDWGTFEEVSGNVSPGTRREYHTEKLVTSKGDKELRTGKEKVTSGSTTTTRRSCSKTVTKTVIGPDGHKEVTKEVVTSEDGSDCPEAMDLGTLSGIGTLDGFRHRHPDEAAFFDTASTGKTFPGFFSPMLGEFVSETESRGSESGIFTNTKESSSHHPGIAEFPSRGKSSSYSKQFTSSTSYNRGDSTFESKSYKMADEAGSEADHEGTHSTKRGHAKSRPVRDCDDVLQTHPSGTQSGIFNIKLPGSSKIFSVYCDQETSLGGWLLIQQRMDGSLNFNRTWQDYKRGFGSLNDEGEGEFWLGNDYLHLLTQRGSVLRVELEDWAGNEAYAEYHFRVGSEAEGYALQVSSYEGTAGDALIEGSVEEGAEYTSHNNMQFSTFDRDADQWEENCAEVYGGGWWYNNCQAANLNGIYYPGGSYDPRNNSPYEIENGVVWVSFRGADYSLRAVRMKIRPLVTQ
Sequence of fibrinogen (P02675 31-491, chain 2 of 3): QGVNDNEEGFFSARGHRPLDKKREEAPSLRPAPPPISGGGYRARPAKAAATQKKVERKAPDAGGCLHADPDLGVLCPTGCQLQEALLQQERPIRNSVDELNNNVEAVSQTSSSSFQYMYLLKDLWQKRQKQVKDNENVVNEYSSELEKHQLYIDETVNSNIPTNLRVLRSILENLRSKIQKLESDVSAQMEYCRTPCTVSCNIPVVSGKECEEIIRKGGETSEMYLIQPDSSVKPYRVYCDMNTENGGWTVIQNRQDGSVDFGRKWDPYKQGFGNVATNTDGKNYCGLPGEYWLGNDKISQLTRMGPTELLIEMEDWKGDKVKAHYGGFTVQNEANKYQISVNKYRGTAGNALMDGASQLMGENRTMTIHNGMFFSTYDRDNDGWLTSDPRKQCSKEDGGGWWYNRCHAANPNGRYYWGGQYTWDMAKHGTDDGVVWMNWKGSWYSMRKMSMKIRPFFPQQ
Sequence of fibrinogen (P02679 27-453, chain 3 of 3): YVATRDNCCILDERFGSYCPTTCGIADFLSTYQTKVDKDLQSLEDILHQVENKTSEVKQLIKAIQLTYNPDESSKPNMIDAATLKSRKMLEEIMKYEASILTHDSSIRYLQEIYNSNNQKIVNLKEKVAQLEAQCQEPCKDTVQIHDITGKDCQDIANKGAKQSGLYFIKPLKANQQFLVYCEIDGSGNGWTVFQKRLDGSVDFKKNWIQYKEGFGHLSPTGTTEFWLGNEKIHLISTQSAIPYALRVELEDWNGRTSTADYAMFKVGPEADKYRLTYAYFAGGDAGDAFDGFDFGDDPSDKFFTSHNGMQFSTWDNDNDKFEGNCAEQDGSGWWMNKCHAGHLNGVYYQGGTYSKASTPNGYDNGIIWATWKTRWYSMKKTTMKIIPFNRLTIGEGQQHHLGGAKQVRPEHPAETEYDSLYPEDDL
Data set [3] addresses T2, alpha2-macroglobulin (UniProt P01023 24-1474).
T2 sequence: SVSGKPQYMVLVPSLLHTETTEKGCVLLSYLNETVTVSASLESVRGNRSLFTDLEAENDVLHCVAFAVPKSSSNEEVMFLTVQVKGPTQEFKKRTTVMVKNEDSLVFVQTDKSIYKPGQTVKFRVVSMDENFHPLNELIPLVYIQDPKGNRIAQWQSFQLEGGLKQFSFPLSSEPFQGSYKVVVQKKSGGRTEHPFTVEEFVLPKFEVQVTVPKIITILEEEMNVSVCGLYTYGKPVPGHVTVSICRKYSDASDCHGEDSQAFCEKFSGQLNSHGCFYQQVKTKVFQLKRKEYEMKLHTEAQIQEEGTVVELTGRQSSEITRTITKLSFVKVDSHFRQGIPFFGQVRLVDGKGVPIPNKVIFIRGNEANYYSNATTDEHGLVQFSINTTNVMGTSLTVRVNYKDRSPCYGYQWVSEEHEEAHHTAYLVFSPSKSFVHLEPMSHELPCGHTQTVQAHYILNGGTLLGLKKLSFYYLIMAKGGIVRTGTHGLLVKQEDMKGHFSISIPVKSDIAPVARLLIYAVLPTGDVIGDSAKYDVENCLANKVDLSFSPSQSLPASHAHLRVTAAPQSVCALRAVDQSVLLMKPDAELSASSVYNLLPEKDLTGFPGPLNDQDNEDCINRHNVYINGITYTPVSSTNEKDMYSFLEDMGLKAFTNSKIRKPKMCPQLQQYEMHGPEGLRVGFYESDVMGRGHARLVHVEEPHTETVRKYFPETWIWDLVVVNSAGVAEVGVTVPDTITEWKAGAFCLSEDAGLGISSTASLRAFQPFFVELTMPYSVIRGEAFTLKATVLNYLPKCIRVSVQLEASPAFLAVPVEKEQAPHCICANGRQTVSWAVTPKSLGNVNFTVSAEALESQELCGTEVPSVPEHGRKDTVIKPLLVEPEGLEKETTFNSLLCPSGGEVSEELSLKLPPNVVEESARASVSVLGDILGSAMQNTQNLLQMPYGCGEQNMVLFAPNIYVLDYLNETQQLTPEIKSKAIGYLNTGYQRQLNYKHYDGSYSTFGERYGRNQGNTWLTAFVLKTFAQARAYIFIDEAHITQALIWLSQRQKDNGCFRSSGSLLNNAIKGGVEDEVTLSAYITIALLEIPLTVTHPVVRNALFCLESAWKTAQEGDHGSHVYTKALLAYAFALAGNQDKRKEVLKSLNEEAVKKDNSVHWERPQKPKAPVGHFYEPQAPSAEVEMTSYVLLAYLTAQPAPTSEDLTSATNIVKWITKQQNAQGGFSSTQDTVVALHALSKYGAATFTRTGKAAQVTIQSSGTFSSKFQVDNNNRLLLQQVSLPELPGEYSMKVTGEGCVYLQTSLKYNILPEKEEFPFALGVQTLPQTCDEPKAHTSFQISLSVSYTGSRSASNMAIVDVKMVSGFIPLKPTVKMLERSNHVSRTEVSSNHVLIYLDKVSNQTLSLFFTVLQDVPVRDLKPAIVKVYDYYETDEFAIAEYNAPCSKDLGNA
The data set can be described thus: filter binding; 205 nM to 5 uM alpha2-macroglobulin; Buffer A: 137 mM NaCl, 2.7 mM KCl, 10 mM Na2HPO4, 2 mM KH2PO4, 5 mM MgCl2, pH 7.4, RT (23-24 C), 30 min. The settings on record: protein: commercial; label: 32P; hairpin.

The target of data set [4] is T3, SUDV sGP (Sudan virus (SUDV), UniProt Q7T9E0 33-324).
T3 sequence: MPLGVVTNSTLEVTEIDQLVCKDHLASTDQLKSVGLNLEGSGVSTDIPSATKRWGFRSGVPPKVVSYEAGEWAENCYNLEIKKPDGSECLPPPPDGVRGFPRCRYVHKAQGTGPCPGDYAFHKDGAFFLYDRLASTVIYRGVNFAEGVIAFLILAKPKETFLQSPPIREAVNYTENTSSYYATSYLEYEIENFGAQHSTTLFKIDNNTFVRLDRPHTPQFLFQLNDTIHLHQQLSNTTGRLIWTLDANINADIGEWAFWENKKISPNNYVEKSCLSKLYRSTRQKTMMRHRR
The data set can be described thus: filter binding; monomer basis. Conditions: protein: commercial; chain copies: 2; label: 32P; hairpin.

The target of data set [5] is Human serum albumin (Homo sapiens (Human), UniProt P02768 25-609). The experiment in a line: filter; PBS + 5 mM MgCl2 pH 7.4. The settings on record: label: 32P.
Sequence of Human serum albumin (P02768 25-609): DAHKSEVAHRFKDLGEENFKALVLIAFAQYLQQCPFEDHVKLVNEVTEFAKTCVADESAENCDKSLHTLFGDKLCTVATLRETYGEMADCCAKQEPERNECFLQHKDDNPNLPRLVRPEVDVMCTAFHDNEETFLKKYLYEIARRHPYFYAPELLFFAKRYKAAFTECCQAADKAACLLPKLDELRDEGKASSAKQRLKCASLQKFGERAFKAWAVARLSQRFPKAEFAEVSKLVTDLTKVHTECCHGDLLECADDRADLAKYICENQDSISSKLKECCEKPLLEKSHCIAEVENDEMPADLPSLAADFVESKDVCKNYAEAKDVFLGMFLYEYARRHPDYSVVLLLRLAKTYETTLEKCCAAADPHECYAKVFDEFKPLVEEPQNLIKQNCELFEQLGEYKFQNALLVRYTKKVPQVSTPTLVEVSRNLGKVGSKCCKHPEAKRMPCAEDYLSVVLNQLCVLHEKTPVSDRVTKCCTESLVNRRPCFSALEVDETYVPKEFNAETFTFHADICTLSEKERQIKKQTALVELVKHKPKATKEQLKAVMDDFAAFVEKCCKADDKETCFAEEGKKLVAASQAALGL
For data set [6], the target named is T1, EBOV sGP (soluble glycoprotein). The data set can be described thus: filter binding. Conditions: protein: recombinant, tags: 6xHis, chain copies: 2.
For data set [7] the target is unchanged. The data set can be described thus: filter binding; 50 and 500 nM sGP; better than 5183. Conditions: protein: recombinant; tags: 6xHis; chain copies: 2; label: 32P; central bulge of 5183 removed.
Data set [8] has the same target. The data set can be described thus: filter binding; monomer basis. The settings on record: protein: recombinant; tags: 6xHis; chain copies: 2; label: 32P; hairpins (Mfold).
Data set [9] has the same target. The data set can be described thus: filter binding; up to 800 nM sGP. Conditions: protein: recombinant; tags: 6xHis; chain copies: 2; label: 32P; hairpins (Mfold).
The target is the same in data set [10]. The data set can be described thus: competition; 100-fold excess competes with 39SGP1A. Conditions: protein: recombinant; tags: 6xHis; chain copies: 2; label: 32P (direct); hairpins (Mfold).
Data set [11] has the same target. The experiment in a line: filter binding; 50 and 500 nM sGP. The settings on record: protein: recombinant; tags: 6xHis; chain copies: 2; label: 32P; 3' stem loop of 5183.
Data set [12] shares this target. Conditions: protein: recombinant; tags: 6xHis; chain copies: 2.

Where two headings read alike, the source gives them in different places. Bounds are passed on as bounds.

T1 sequence (P60170 33-324): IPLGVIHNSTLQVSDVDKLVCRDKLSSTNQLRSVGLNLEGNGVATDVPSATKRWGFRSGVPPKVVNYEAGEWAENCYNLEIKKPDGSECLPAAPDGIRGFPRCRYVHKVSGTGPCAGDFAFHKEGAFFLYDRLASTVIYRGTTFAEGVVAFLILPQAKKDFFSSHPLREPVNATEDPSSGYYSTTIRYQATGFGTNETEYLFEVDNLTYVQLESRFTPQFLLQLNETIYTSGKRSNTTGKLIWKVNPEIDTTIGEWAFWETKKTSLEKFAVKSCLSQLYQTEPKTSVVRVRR

The term Kd denotes the free concentration of one partner at which half of the binding sites on the other are occupied at equilibrium, for simple one-to-one binding. For the molecule GGGCGCUCAAUUUUUUAUUGCAUUUUUCUUUGAGCGCCC (XNA, 2'-F on all C and U) [39SGP1A (5199) 2'FY-RNA], the Kd came out at 27 nM in data set [1] and 240 nM in data set [4]. Further, the binding result in data set [2] and in data set [3] was “no binding” throughout.

As for GGGCGCUCAAUUUUUUAUUGCAUUUUUCUUUGAGCGCCC (ssRNA, 2'-F pyrimidines) [39SGP1A (5199)], in [5], the Kd is over 68000 nM.

B1: 5189 2'FY-RNA (XNA)
RNA: GGGAGACAAGAAUAAACGCUCAAUUUUUUAUUGCAUUUUUCUUUGAGCGUCAUUGAUACCCUGUUUCCU
modifications: 2'-F on all C and U
As to B1, the binding result in [6] (label: 32P) is “binds”.

B2: 5192 2'FY-RNA (XNA)
RNA: GGGAGACAUAAACGCUCAAUUUUUUAUUGCAUUUUUCUUUGAGCGUCAUUGUGUUUCCUUGAGCACUUCGACAGGAGGCUCACAACAGGC
modifications: 2'-F on all C and U
Regarding B2, the binding result in data set [7] is listed as “binds”.

B3: 5179 2'FY-RNA (XNA)
RNA: GGGAGACAAGAAUAAACGCUCAAUCUUUUUAUUUUACUUUUUGUUGUAGAGCGCUUGUUUCUCUGAGUUGUAGCCAUUCGACAGGAGGCUCACAACAGGC
modifications: 2'-F on all C and U
B3: in data set [6] (label: 32P (direct)), the dissociation constant (Kd) was under 100 nM.

B4: 5183 2'FY-RNA (XNA)
RNA: GGGAGACAAGAAUAAACGCUCAAUUUUUUAUUGCAUUUUUCUUUGAGCGUCAUUGAUACCCUGUUUCCUUGAGCACUUCGACAGGAGGCUCACAACAGGC
modifications: 2'-F on all C and U; 2'-OH A and G
B4: in data set [8], the Kd worked out at 54 nM.

B5: 2'FC-5183 (XNA)
RNA: B4 RNA
modifications: 2'-F on C only; U is 2'-OH
B5: in data set [9], the binding result was “no binding”.

B6: 5183 (ssRNA)
RNA: B4 RNA
modifications: 2'-F pyrimidines
B6: the Kd in data set [5] is 400 nM.

B7: 5183 2'OH RNA (structured_RNA)
RNA: B4 RNA
modifications: none (2'-OH)
Take B7: the binding result in [6] (label: 32P, hairpins (Mfold)) is “no binding”.

B8: 4789 2'FY-RNA (XNA)
RNA: GGGAGACAAGAAUAAACGCUCAAACGUAAUGCAGUCUGUGAGCUUCAGCAAGUAAAAUUAGCGCUGACCGACCCUGUUCGACAGGAGGCUCACAACAGGC
modifications: 2'-F on all C and U
As for B8, in [10], the binding result is given as “binds”.

B9: 5193 2'FY-RNA (XNA)
RNA: GGGAGACAAGAAUGAUACCCUGUUUCCUUGAGCUAUUCGACAGGAGGCUCACAACAGGC
modifications: 2'-F on all C and U
Turning to B9, the binding result in [11] is given as “no binding”.

B10: 5182 2'FY-RNA (XNA)
RNA: GGGAGACAAGAAUAAACGCUCAAGUCUUUAUUUUUACACUUUUAUUUUACCUUGAGCUUCUUGACCAACAGUGCGCUUCGACAGGAGGCUCACAACAGGC
modifications: 2'-F on all C and U
For B10, in [6] (label: 32P), the Kd is under 100 nM.

B11: 4797 2'FY-RNA (XNA)
RNA: GGGAGACAAGAAUAAACGCUCAAAGCAACACAACGAGAUUAAACAAUCUAUUGUUAACAUUAAACAACUAGGCCGAUUCGACAGGAGGCUCACAACAGGC
modifications: 2'-F on all C and U
In the case of B11, the dissociation constant (Kd) in [12] was about 500 nM.
